{"source": "patent US20050171004A1", "about": "“Use of cardiotrophin-1 to promote wound healing and counteract overt fibrosis” (priority 2003, published 2005)", "molecules": {"B1": {"name": "cardiotrophin-1 (protein, UniProt Q16619 1-201, looked up)", "Cardiotrophin-1": "MSRREGSLEDPQTDSSVSLLPHLEAKIRQTHSLAHLLTKYAEQLLQEYVQLQGDPFGLPSFSPPRLPVAGLSAPAPSHAGLPVHERLRLDAAALAALPPLLDAVCRRQAELNPRAPRLLRRLEDAARQARALGAAVEALLAALGAANRGPRAEPPAATASAASATGVFPAKVLGLRVCGLYREWLSRTEGDLGQLLPGGSA", "notes": "gp130 signaling cytokine of the LIF or IL-6 superfamily; 201 amino acids as a mature protein, 21.5 kDa"}}, "key": {"cardiac fibroblasts [1]": {"test_system": "cardiac fibroblasts", "assay": "Protein synthesis assay (3H-leucine incorporation)", "format": "cell-based, rat", "settings": "CT-1 for 24 hours", "description": "Protein synthesis was determined using the methods of Wolf and Neilson (Wolf and Neilson, 1990, Am J Physiol 259: 768-777). 2.5×10^4 cells (counted with a hemacytometer) were loaded into each well of 24-well plates, allowed to attach overnight, then rendered quiescent in serum free DMEM/F12 for 24 hours. Cells were stimulated with CT-1 for an additional 24 hours in the presence of 2 μCi/mL ^3H-leucine with or without inhibitors of signaling pathways. The culture media was aspirated, cells rinsed twice with phosphate buffered saline and proteins precipitated by two incubations with 10% TCA at room temperature. The precipitated protein was solubilized in 300 μl lysis buffer containing 0.5 M NaOH and 1% Triton X-100 at room temperature for 15 minutes. The lysate was transferred to scintillation vials, and beta emission was determined with 3 ml Ecolume scintillation fluid (ICN Pharmaceuticals) and a scintillation counter (LS6500, Beckman Coulter, Fullerton, Calif.)."}, "cardiac fibroblasts [2]": {"test_system": "cardiac fibroblasts", "assay": "Collagen synthesis (P1CP radioimmunoassay of conditioned media)", "format": "cell-based, rat", "settings": "CT-1 for 24 hours", "description": "Synthesis of mature type I collagen was determined by measuring the concentration of the carboxyterminal propeptide of type I collagen (P1CP) in conditioned media from CT-1 treated or untreated cardiac fibroblasts. 5×10^4 cells were loaded into each well of a 6 well plate, allowed to attach overnight, and serum starved for 24 hours. Cells were treated with CT-1 at specified concentrations for an additional 24 or 48 hours. P1CP content in 0.1 mL conditioned media was determined by radioimmunoassay according to the manufacturer's specification (Diasorin Inc, Stillwater, Minn.). Radioactivity was quantified with a gamma counter (Gamma 5500, Beckman Coulter, Fullerton, Calif.) and the concentration of P1CP was determined by the % B/B0 versus log concentration."}, "cardiac myofibroblasts": {"test_system": "cardiac myofibroblasts", "assay": "Estimation of membrane potential with DiBAC4(3) dye", "format": "cell-based, rat", "settings": "superfusion with CT-1 for 4 minutes", "description": "Myofibroblast membrane potential was estimated using voltage sensitive DiBAC4(3) dye (Molecular Probes, Eugene, Oreg.). […] First passage myofibroblasts were plated on glass coverslips, allowed to attach, then incubated with 1 μM DiBAC4(3) in control solution containing: NaCl (140 mM), KCl (5 mM), HEPES (10 mM), CaCl2 (2.0 mM), MgCl2 (1.4 mM) and glucose (10 mM) for 20 minutes. The cells were visualized at 400× on an inverted microscope (Nikon Canada). DiBAC4 (3) was excited at 470 nm wavelength and emitted light at 525 nm was digitized and stored (Photon Technology International, Lawrenceville, N.J.). Fluorescence intensity was normalized to maximum fluorescence observed throughout the experiment. To ensure fluorescence intensity changes in response to altered membrane potential were occurring as expected, the cells were superfused with Tyrode's solution containing 1 μM DiBAC4(3) and 1.5 mM KCl or 15 mM KCl. Under these control conditions, DiBAC4(3) fluorescence decreased or increased indicating hyperpolarization or depolarization, respectively. For CT-1 experiments, CT-1 was diluted in control solution containing 1 μM DiBAC4(3). After ensuring a stable fluorescence signal, the cells were superfused with the CT-1 containing solution for 4 minutes, followed by washout. Fluorescence was monitored for a total of 10 minutes."}, "cardiac fibroblasts [3]": {"test_system": "cardiac fibroblasts", "assay": "Western analysis of myosin light chain phosphorylation", "format": "cell-based, rat", "settings": "CT-1 10 ng/mL", "description": "Protein concentrations of tissue and cell lysates were determined by the BCA method (Smith et al., 1985, Anal Biochem 150: 76-85). Proteins were separated by 8-12% SDS-PAGE and transferred to PVDF membrane (Roche, Indianapolis, Ind.) for 1 hour at 300 mA for small proteins or for 2 hours at 500 mA for proteins greater than 100 kDa. Membranes were blocked with 5% non-fat skim milk in tris-buffered saline containing 0.2% Tween 20 (TBST). Proteins were visualized with ECL Plus (Amersham) after probing with primary and secondary antibodies. Band intensity was quantified using a CCD camera imaging densitometer (GS670, Bio-Rad Laboratories (Canada) Ltd. Mississauga, Ontario).\nThe infarct zone is repopulated by interstitial fibroblasts that infiltrate the scar after MI. […] Similar results were obtained when using the Costar Transwell® system (data not shown). To determine how the chemotactic response is transduced, we used specific inhibitors of intracellular signaling pathways. […] This effect could be blunted by co-incubation with AG490 (FIG. 22). […] Since activation of myosin motors is required for effective cell migration, and CT-1 induced migration could be inhibited by co-incubation with a myosin light chain kinase inhibitor, we sought to determine the effect of CT-1 on the phosphorylation status of myosin light chain. Myosin light chain regulates the ATPase activity of myosin heavy chain, and thus overall contractile activity. […] Myosin light chain phosphorylation could be prevented by co-incubation with ML-7 or W7 but not AG490 or PP2 (FIG. 25b)."}, "cardiac fibroblasts [4]": {"test_system": "cardiac fibroblasts", "assay": "Immunofluorescence of STAT3 nuclear accumulation", "format": "cell-based, rat", "settings": "CT-1 for 5 minutes", "description": "Cardiac fibroblasts were seeded onto coverslips in 6 well dishes and allowed to attach overnight in media containing 10% serum. The cells were rendered quiescent in serum free media for 24 hours before being stimulated with CT-1 for specified times. The media was removed, cells were rinsed with PBS and fixed with 4% paraformaldehyde. Cells were permeabilized with 0.1% Triton X-100 and incubated with primary antibodies, biotinylated secondary antibodies, and streptavidin FITC. Nuclei were stained with Hoechst 33342. The cells were visualized with epifluorescent microscopy with appropriate filters (Nikon Canada)."}, "rat cardiac fibroblasts": {"test_system": "rat cardiac fibroblasts", "assay": "Boyden chamber migration assay", "format": "cell-based", "description": "Migration of rat cardiac fibroblasts was measured using Boyden chamber (Neuro Probe Inc. Gaithersburg, Md.) assay (Richards and McCullough, 1984, Immunol Commun 13: 49-62). Chemoattractants were diluted in DMEM/F12 and loaded into the lower wells at specified concentrations. The polycarbonate membrane (5 μm pore) was placed over the wells, and 55 μL cell suspension in DMEM/F12 supplemented with 100 μM ascorbate was loaded into each well (1000 cells/mm^2). The chamber was incubated overnight in 5% CO2 and 100% humidity at 37° C. Cells that had migrated through the membrane and become adherent to the lower surface were fixed with methanol and stained with Diff-Quick stain (Dade Behring AG, Düdingen, Switzerland). Cell migration was determined by counting the number of cells per high power field."}, "cardiac fibroblasts [5]": {"test_system": "cardiac fibroblasts", "assay": "Nuclear accumulation of PCNA", "format": "cell-based, rat", "settings": "CT-1 for 24 hours", "description": "Cardiac fibroblasts were seeded onto cover slips and allowed to attach overnight. The cells were incubated with serum free media for 24 hours prior to stimulation with CT-1 for an additional 24 hours. The cells were then fixed with cold acetone, permeabilized and immunostained for PCNA and counter stained with Hoechst 33342. Images from 5 high power fields per slide were captured and cells were counted. Nuclei that were positive for PCNA were counted and expressed as a ratio to total nuclei."}, "[6]": {"test_system": "porcine coronary artery vascular smooth muscle cells", "assay": "Chemotaxis of vascular smooth muscle cells (data not shown)", "format": "cell-based"}}}
{"molecule": "B1", "values": [{"measurement": "protein synthesis (3H-leucine incorporation)", "setting": "cardiac fibroblasts [1]", "value": "dose-dependent increase in protein synthesis"}, {"measurement": "P1CP expression normalized to the number of cells at the end of the experiment", "setting": "cardiac fibroblasts [2]; corrected for cell number", "value": "apparent decrease in overall mature collagen synthesis"}, {"measurement": "expression of P1CP in the culture media (mature collagen synthesis)", "setting": "cardiac fibroblasts [2]; not normalized", "value": "increased expression of P1CP"}, {"measurement": "cell membrane potential (DiBAC4(3) fluorescence)", "setting": "cardiac myofibroblasts", "value": "pronounced hyperpolarization"}, {"measurement": "phosphorylation of myosin light chain at threonine 18/serine 19", "setting": "cardiac fibroblasts [3]", "value": "induced phosphorylation"}, {"measurement": "nuclear accumulation of STAT3", "setting": "cardiac fibroblasts [4]", "value": "nuclear accumulation of STAT3"}, {"measurement": "cardiac fibroblast migration", "setting": "rat cardiac fibroblasts; CT-1 gradient, overnight", "value": "induced cardiac fibroblast migration in a dose dependent manner"}, {"measurement": "dependence of CT-1 induced migration", "setting": "rat cardiac fibroblasts; ion channel and myosin light chain kinase function", "value": "dependent on functioning potassium channels and myosin light chain kinase"}, {"measurement": "dependence of CT-1 chemotaxis", "setting": "rat cardiac fibroblasts; specific inhibitors of signaling pathways, integrin inhibitors", "value": "dependent on intracellular signaling pathways"}, {"measurement": "nuclear expression of PCNA", "setting": "cardiac fibroblasts [5]", "value": "increased nuclear expression of PCNA"}, {"measurement": "chemotactic effect", "setting": "[6]", "value": "does appear to have a chemotatic effect"}]}
